Results: publication PMC12120020

Molecular target: XRCC4 (X-ray repair cross-complementing protein 4) (UniProt Q13426)
Assay: co-IP with anti-Flag M2 beads
Details: reference: Flag-AATF wild type, IR; sites S189

binding against the reference: stronger
Substance: AATF (apoptosis antagonizing transcription factor) (from UniProt Q9NY61) Flag-AATF S189A, IR
